Source: the DeepSol protein solubility set

Assay: soluble on expression in E. coli; label from the status in PepcDB or PDB records

Sequence: MKIAIVGSGNGAVTAAVDMVSKGHDVKLYCRNQSISKFQNAIEKGGFDFNNEGDERFVKFTDISDDMEYVLKDAEIVQVIIPSSYIEYYADVMAEHVTDNQLIFFNMAAAMGSIRFMNVLEDRHIETKPQLAEANTLTYGTRVDFENAAVDLSLNVRRIFFSTYDRSCLNDCYDKVSSIYDHLVKEESLIKTNLENGNPEVHPGPTLLNVGRIDYAGEFALYKEGITKHTVRLLHAIELERLNLGRRLGFELSTAKESRIERGYLERDKEDEPLNRLFNTSPVFSQIPGPNHVESRYLTEDIAYGLVLWSSLGRVIDVPTPNIDAVIVIASTILERDFFEEGLTVEEIGLDKLDLEKYLK
- soluble on expression in E. coli: not soluble

Sequence: MGSDKIHHHHHHMRTIWTPTLENFSGSKYEQLANAIGDAITRGELAPGSKLPPQRRLADALGVTLGTVTRAYTKAIYRGWVEARVGDGTYVRMAEPKSTGPLDLATCQQAVTDQAAFLGEVMSRMGRDPVRLAGLLDYHTANLEAQQETVLTFLARSGVDDFGGKLVFTHGAQQGLFAALAAICEPGDWVLHEAWCYPGLNRAAEALSLNLCGVSLLDDGLNLDELAACIDKHKPKAIYLTPNSQNPGCIGYSGAQRQRILALARAHDIIIIEDDVNYCTSQEWSAPIWQLAADAQSVVYLSSLSKRFAGGIRFGFMLLPARLQPRVNRIIHAHCWMVSPLLIEIGCELIRSGGIHQHRDAWIASLQQRFLTMAESLDLEAKSRGLNGRLTLPEGFRASNVIAALAAKGILARSLADFGGPANGIRFSLGRIPRGEEDEVFDRIQSTLTDVLNQGIAVV
- soluble on expression in E. coli: not soluble

Sequence: MTLSFTARWRDELPATYTALLPTPLKNARLIWYNDELAQQLAIPASLFDATNGAGVWGGETLLPGMSPVAQVYSGHQFGVWAGQLGDGRGILLGEQLLADGSTLDWHLKGAGLTPYSRMGDGRAVLRSTIRESLASEAMHYLGIPTTRALSIVTSDTPVQRETQETGAMLMRLAQSHMRFGHFEHFYYRREPEKVQQLADFAIRHYWPQWQDVAEKYALWFEEVAARTGRLIAEWQTVGFAHGVMNTDNMSILGLTIDYGPFGFLDDYDPGFIGNHSDHQGRYRFDNQPSVALWNLQRLAQTLTPFIEIDALNRALDRYQDALLTHYGQRMRQKLGFFTEQKDDNVLLNELFSLMAREGSDYTRTFRMLSHTEQQSASSPLRDTFIDRAAFDAWFDRYRARLRTEAVDDALRQQQMQRVNPAIVLRNWLAQRAIDAAEQGDMAELHRLHEVLRQPFTDRDDDYASRPPEWGKRLEVSCSSMAGDPLEHHHHHH
- soluble on expression in E. coli: not soluble

Sequence: MTWLDEKGRFAIYEAPQNCPYLGTIGTCYEFGSLPVILMFPELEKLFLKLLISYVRNDGYVPHDLGFHSLDSPIDGTTSPPKWKDMNPSLILLVYRYFKFTNDIDFLKEVYPTIVKVMDWELRQCRDGLPFMEGEMDNAFDATIIKGHDSYTSSLFIASLIAMREIAKLVGDSNYVGFINEKLNVAREAFRKMFNGKYFKAWDGVDKASFLAQLYGEWFTTLLELENIVDENMIKSALESIIRLNGNASPYCVPNLVDENGKIVNLSVQTYSSWPRLVFAICWLAYKKGVGDLSFCKKEWDNLVRNGMVWDQPSRINCYTGKPEINYLDHYVGSPSLWSFLFLEHHHHHH
- soluble on expression in E. coli: not soluble

Sequence: MAMAVSGAVLSGLGSSFLTGGKRGATALASGVGTGAQRVGRKTLIVAAAAAQPKKSWIPAVKGGGNFLDPEWLDGSLPGDFGFDPLGLGKDPAFLKWYREAELIHGRWAMAAVLGIFVGQAWSGVAWFEAGAQPDAIAPFSFGSLLGTQLLLMGWVESKRWVDFFNPDSQSVEWATPWSKTAENFANYTGDQGYPGGRFFDPLGLAGKNRDGVYEPDFEKLERLKLAEIKHSRLAMVAMLIFYFEAGQGKTPLGALGL
- soluble on expression in E. coli: soluble

Sequence: SIVLEPIYWNSSNSKFLPGQGLVLYPQIGDKLDIICPKVDSKTVGQYEYYKVYMVDKDQADRCTIKKENTPLLNCAKPDQDIKFTIKFQEFSPNLWGLEFQKNKDYYIISTSNGSLEGLDNQEGGVCQTRAMKILMKVGQDAS
- soluble on expression in E. coli: soluble

Sequence: MTDCEFGYIYRLAQDYLQCVLQIPQPGSGPSKTSRVLQNVAFSVQKEVEKNLKSCLDNVNVVSVDTARTLFNQVMEKEFEDGIINWGRIVTIFAFEGILIKKLLRQQIAPDVDTYKEISYFVAEFIMNNTGEWIRQNGGWENGFVKKFEPKSGWMTFLEVTGKICEMLSLLKQYC
- soluble on expression in E. coli: soluble
